Measured values as given in US20190233517A1 (published 2019).

Tests used:
membrane EGFR = membrane EGFR (human, UniProt P00533 25-1210); assay: cell-based or functional assay
[1] = molecular target: T1, CD20 on the cell surface of Raji cells (human, UniProt P11836 1-297); assay: flow cytometry on Raji cells
T1 construct: whole, on cells; also called CD20 (Raji)
T1 sequence (looked up): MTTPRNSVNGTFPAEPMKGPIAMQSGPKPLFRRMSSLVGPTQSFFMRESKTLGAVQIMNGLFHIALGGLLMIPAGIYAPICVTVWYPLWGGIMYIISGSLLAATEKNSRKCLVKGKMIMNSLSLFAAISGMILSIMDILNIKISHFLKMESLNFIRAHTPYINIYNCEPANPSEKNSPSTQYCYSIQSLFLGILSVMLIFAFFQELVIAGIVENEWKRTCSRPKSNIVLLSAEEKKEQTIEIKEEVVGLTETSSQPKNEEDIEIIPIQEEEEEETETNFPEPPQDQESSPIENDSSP
From the text: (§1) Raji cell was used for detecting human B cell binding. […] Cells were washed in PBS buffer containing 2% FBS. […] Cells were washed and signal was detected with a BD FACSVerse flow cytometer according to manufacture's protocols.

[2] = molecular target: T2, cynomolgus CD20 on transiently transfected HEK 293 cells (cynomolgus, UniProt M4ZHZ6 1-297); assay: flow cytometry on HEK 293 cells transfected with cynoCD20
T2 construct: whole, on cells; also called cynoCD20
T2 sequence: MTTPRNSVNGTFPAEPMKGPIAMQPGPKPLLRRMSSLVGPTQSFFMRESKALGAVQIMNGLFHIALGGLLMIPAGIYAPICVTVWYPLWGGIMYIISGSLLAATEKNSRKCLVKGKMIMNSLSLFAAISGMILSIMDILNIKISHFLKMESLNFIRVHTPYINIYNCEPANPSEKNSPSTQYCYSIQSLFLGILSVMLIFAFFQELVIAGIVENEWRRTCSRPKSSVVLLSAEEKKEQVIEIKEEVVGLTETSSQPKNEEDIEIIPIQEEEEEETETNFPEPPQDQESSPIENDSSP
From the text: as §1

[3] = molecular target: T1, CD20 on the cell surface of Raji cells; assay: flow cytometry on Raji cells, 100 nM

Row | Binder | EGFR Depletion (%), H441 cell, FACS after >16 hrs at 37 C (membrane EGFR) [%] | Binding Intensity by FACS (MFI) [3] [MFI] | further results
1 | cMet antibody h1332 (13.3.2L-A91T,H-42K,S97T) (antibody, V domains shown) VH: QVQLVQSGAEVKKPGASVKVSCKASGYTFTSYGFSWVRQAPGQGLEWMGWISASNGNTYYAQKLQGRVTMTTDTSTSTAYMELRSLRSDDTAVYYCARVYADYADYWGQGTLVTVSS VL: DIQMTQSPSSVSASVGDRVTITCRASQGINTWLAWYQQKPGKAPKLLIYAASSLKSGVPSRFSGSGSGTDFTLTISSLQPEDFATYYCQQANSFPLTFGGGTKVEIK | 0 |  | 
2 | FIT013a cMet (h1332 (13.3.2L-A91T,H-42K,S97T))/EGFR (panitumumab) (bispecific antibody, human IgG1, kappa) chain 1: not shown chain 2: QVQLVQSGAEVKKPGASVKVSCKASGYTFTSYGFSWVRQAPGQGLEWMGWISASNGNTYYAQKLQGRVTMTTDTSTSTAYMELRSLRSDDTAVYYCARVYADYADYWGQGTLVTVSSASTKGPSVFPLAPSSKSTSGGTAALGCLVKDYFPEPVTVSWNSGALTSGVHTFPAVLQSSGLYSLSSVVTVPSSSLGTQTYICNVNHKPSNTKVDKKVEPKSC chain 3: not shown | 65.9 |  | 
3 | FIT018a CD20 (Ofatumumab)/CD3 mAb (bispecific antibody, human IgG1, kappa, lambda, L234A L235A) chain 1: not shown chain 2: EVQLVESGGGLVQPGRSLRLSCAASGFTFNDYAMHWVRQAPGKGLEWVSTISWNSGSIGYADSVKGRFTISRDNAKKSLYLQMNSLRAEDTALYYCAKDIQYGNYYYGMDVWGQGTTVTVSSASTKGPSVFPLAPSSKSTSGGTAALGCLVKDYFPEPVTVSWNSGALTSGVHTFPAVLQSSGLYSLSSVVTVPSSSLGTQTYICNVNHKPSNTKVDKKVEPKSC chain 3: ELVVTQEPSLTVSPGGTVTLTCRSSTGAVTTSNYANWVQQKPGQAPRGLIGGTNKRAPGTPARFSGSLLGGKAALTLSGVQPEDEAEYYCALWYSNLWVFGGGTKLTVLGQPKAAPSVTLFPPSSEELQANKATLVCLISDFYPGAVTVAWKADSSPVKAGVETTTPSKQSNNKYAASSYLSLTPEQWKSHRSYSCQVTHEGSTVEKTVAPTECS |  |  | binding result [1]: binds; binding result [2]: binds
4 | OKT3/Ofatumumab FIT7-Ig (bispecific antibody, human IgG1, kappa, FIT-Ig of 3 polypeptides, two copies of each chain, human IgG1 Fc) chain 1: not shown chain 2: not shown chain 3: not shown |  | 291 | 
5 | OKT3/Ofatumumab FIT8-Ig (bispecific antibody, human IgG1, kappa, FIT-Ig of 3 polypeptides, two copies of each chain, human IgG1 Fc) chain 1: not shown chain 2: not shown chain 3: not shown |  | 274 | 
